B1: HDV Ribozyme (parent)
chain: GGCCGGCAUGGUCCCAGCCUCCUCGCUGGCGCCGGCUGGGCAACAUUCCGAGGGGACCGUCCCCUCGGUAAUGGCGAAUGGGACCCA

Variants of: B1
Test: self-cleavage, relative activity (ratio to wild type); higher = more cleavage; co-transcriptional

| Variant | self-cleavage |
| --- | --- |
| C30A C32G | 0.101 |
| G31U G52C | 0.35 |
| C30A C75G | 0 |
| C30A C75A | 0.166 |
| G29C G39U | 0.0992 |
| G31U C61U | 0.478 |
| G31U C61A | 0.38 |
| G29C G54C | 0.0692 |
| G31U G38U | 0.0944 |
| G29U G82A | 0.0282 |
| G29C G81C | 0.18 |
| G31A C85G | 0.367 |
| G31C A71U | 0.172 |
| G31C A71G | 0.253 |
| G31C A71C | 0.0475 |
| C30G G53C | 0.237 |
| C30G G53U | 0.103 |
| C30U C58A | 0.697 |
| C30U C58G | 0.569 |
| G31U C66G | 0.266 |
| G29U U60G | 0.175 |
| G31C G80C | 0.0615 |
| G31U G40A | 0.359 |
| G31C G67A | 0.402 |

| Variant | self-cleavage |
| --- | --- |
| G31C G68A | 0.372 |
| C30G C84U | 0.0268 |
| C30G C84G | 0.0755 |
| C30U G80C | 0.208 |
| C30U G80A | 0.227 |
| C30U G80U | 0.116 |
| G29U C63U | 0 |
| C30A G40A | 0.462 |
| C30A U72C | 0.142 |
| C30A U72A | 0.123 |
| G31A G76C | 0.469 |
| C30A U46C | 0.237 |
| G29U A45U | 0 |
| G31A U72A | 0.0292 |
| C30U C66A | 0.684 |
| C30G G81C | 0.032 |
| G31U C32A | 0.111 |
| C30G C41U | 0.0702 |
| G29C G40A | 0.0804 |
| G29C U37A | 0.201 |
| G29C U37G | 0.128 |
| G29C U37C | 0.0898 |
| G31A C32U | 0.315 |
| C30G G50C | 0.157 |

| Variant | self-cleavage |
| --- | --- |
| G29U G52U | 0.0875 |
| C30A G59U | 0.637 |
| G29U U72G | 0 |
| G31A G39C | 0.182 |
| C30U G55A | 0.691 |
| C30A A87G | 0.614 |
| C30A A87U | 0.537 |
| G29U A78U | 0.0287 |
| G29U A78G | 0.0378 |
| G29C G31C | 0 |
| G31A C61G | 0.401 |
| G31U C64A | 0.364 |
| G29U C41G | 0.0302 |
| G29U C41U | 0.0432 |
| G29U U47G | 0 |
| C30A U60A | 0.692 |
| G31A C58G | 0.393 |
| G31A C58A | 0.574 |
| C30U G52U | 0.709 |
| C30U G52C | 0.709 |
| C30A C36A | 0.0361 |
| C30G G80C | 0.0462 |
| C30A G35U | 0.166 |
| C30A G35C | 0.0678 |

| Variant | self-cleavage |
| --- | --- |
| C30U A77G | 0.489 |
| C30U A77U | 0.215 |
| G29C G68U | 0.0302 |
| C30G U69G | 0 |
| G29U A87C | 0.0349 |
| G29U A87G | 0.0585 |
| G29C C64U | 0.0594 |
| G31C G81C | 0.194 |
| C30U G50U | 0.645 |
| C30U G50C | 0.677 |
| G31U C58A | 0.35 |
| G29U | 0.0885 |
| G31C G54A | 0.191 |
| G31C G54C | 0.193 |
| C30G C48A | 0.0369 |
| C30A A42G | 0 |
| G29U C33U | 0.0563 |
| G29U U65A | 0.175 |
| C30U A56U | 0.782 |
| G31C C44A | 0 |
| G29U C85U | 0.086 |
| G29U C85G | 0 |
| G29C G80A | 0.0692 |
| G29C G80U | 0.0953 |

| Variant | self-cleavage |
| --- | --- |
| G29U C57U | 0.0911 |
| G31C U65C | 0.361 |
| G31U A56G | 0.386 |
| C30G C61G | 0.157 |
| C30G C61A | 0.0252 |
| G31U A45C | 0.119 |
| G31U A45G | 0.107 |
| C30G A71G | 0.0339 |
| G29U G68U | 0.135 |
| G29U G68A | 0.0886 |
| C30A C66G | 0.675 |
| C30U G68U | 0.594 |
| G31C A42G | 0.0755 |
| G31C C36G | 0 |
| G31C C36A | 0.0277 |
| C30G U79G | 0.128 |
| G31C C57U | 0.445 |
| C30U A70G | 0.8 |
| C30A G50C | 0.577 |
| G31C C84G | 0.193 |
| C30U C62A | 0.562 |
| C30G A42C | 0.151 |
| G31C C62G | 0.166 |
| G31C C62A | 0.181 |

| Variant | self-cleavage |
| --- | --- |
| C30G G38U | 0.114 |
| G31A G52U | 0.531 |
| G31A G52C | 0.619 |
| C30G G54C | 0.095 |
| C30G G54U | 0.148 |
| C30G G40A | 0.0923 |
| G29C U69G | 0.0504 |
| G29C U69C | 0 |
| C30U C33A | 0.0268 |
| C30A C62G | 0.321 |
| C30G C86G | 0.0536 |
| C30A G55U | 0.458 |
| G29C G74C | 0.032 |
| C30U A87C | 0.755 |
| G29U G50U | 0.12 |
| G31C A43G | 0.104 |
| G29U C61G | 0.203 |
| G29U G74A | 0.0978 |
| G29U G74U | 0.0963 |
| G29U G39C | 0.0302 |
| G29U G31A | 0.135 |
| G29U G31U | 0.0804 |
| G31A C49G | 0.34 |
| G29U G54C | 0.0282 |

| Variant | self-cleavage |
| --- | --- |
| G29U G54A | 0.189 |
| C30G C63A | 0.229 |
| G29U C30G | 0.0923 |
| G29U C30A | 0.155 |
| G31U G35A | 0.17 |
| C30A G80A | 0.105 |
| C30U C64U | 0.806 |
| G31U C44G | 0.0665 |
| G31A C64U | 0.409 |
| G31A C64G | 0.408 |
| C30U C75G | 0.0554 |
| C30A C41U | 0.328 |
| G31C A70G | 0.285 |
| C30U C85U | 0.787 |
| G31C G82C | 0.134 |
| G29U A71U | 0.0831 |
| G31U A70G | 0.48 |
| G29U C84A | 0.117 |
| G31A A77U | 0.0906 |
| C30U U60G | 0.443 |
| G29C C85U | 0.108 |
| C30G G55A | 0.0852 |
| C30G G55U | 0.0225 |

Source: the RNAGym collection of RNA variant scans (doi:10.7554/elife.80360)
